Test results published in patent US20260248972A1, “DUAL RECEPTOR TARGETING RADIOLIGANDS AND USES THEREOF RELATED APPLICATIONS” (priority 2022, published 2026).
Read-outs that look alike come from different tables or passages of the source.

How the values were obtained:
CCK2R = target: T1, CCK2R (Rattus norvegicus, UniProt P30553); assay: Competitive cell-binding assay on AR42J cells with 125I-C3 as competitive ligand
T1 construct: host or cells: AR42J cells
T1 sequence (P30553 1-452): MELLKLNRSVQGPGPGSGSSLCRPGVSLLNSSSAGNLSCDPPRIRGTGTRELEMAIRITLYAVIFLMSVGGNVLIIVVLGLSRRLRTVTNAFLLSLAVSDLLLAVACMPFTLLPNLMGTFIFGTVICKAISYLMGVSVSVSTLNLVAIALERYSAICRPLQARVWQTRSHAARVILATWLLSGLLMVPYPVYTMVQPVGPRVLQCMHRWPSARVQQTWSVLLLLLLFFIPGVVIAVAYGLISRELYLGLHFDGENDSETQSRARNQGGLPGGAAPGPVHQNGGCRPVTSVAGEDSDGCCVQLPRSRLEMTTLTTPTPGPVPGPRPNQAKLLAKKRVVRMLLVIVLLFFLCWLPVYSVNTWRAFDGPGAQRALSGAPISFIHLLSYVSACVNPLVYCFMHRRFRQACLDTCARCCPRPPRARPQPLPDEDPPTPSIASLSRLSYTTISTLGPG
Protocol: (§1) AR42J cells (ATCC) were maintained in RPMI-1640 medium (Gibco) supplemented with 15% fetal bovine serum (Gibco) and 1% penicillin-streptomycin (BI) at 37° C. in a humidified incubator with 5% CO2. The culture medium was replaced with fresh medium every 2-3 days. Experiments were performed with cells at 70-80% confluence.
(§2) Binding Affinity Tested by Using ^125I-Labeled Competitive Ligands.
(§3) The binding affinities of test compounds were determined by a competitive cell-binding assay using ^125I-C1 and ^125I-C3 as the competitive ligand. The suspended AR42J cells at a density of 1~3×10^6 cells/mL in binding buffer (RPMI-1640 medium supplemented with 0.25% bovine serum albumin) were transferred to a MultiScreen-DV Filter Plate (Millipore) with 100 μL per well except the blank group where the binding buffer was used instead. The cells were then incubated with ^125I-C1 and ^125I-C3 (0.02 μCi/well) in the presence of increasing concentrations (0-10000 nM) of test compounds at 37° C. for 1 h (n=3). The final volume in each well was maintained at 200 μL and insufficient volume was adjusted by the binding buffer. After the 1 h incubation, unbound ^125I-competitive ligands were removed by filtration using a Multiscreen vacuum manifold (Millipore) followed by rinses with the binding buffer (3 times). The filters were collected, and their radioactivity were individually measured by γ counter (2480 WIZARD2, PerkinElmer). The best-fit IC50value (inhibitory concentration when 50% of the bound ^125I-C1 and ^125l I-C3 on cells were displaced) of test compounds were calculated by fitting the data with nonlinear regression using GraphPad Prism 8.0.1.

SSTR2 = target: T2, SSTR2 (Rattus norvegicus, UniProt P30680); assay: Competitive cell-binding assay on AR42J cells with 125I-C1 as competitive ligand
T2 construct: host or cells: AR42J cells
T2 sequence (P30680 whole entry): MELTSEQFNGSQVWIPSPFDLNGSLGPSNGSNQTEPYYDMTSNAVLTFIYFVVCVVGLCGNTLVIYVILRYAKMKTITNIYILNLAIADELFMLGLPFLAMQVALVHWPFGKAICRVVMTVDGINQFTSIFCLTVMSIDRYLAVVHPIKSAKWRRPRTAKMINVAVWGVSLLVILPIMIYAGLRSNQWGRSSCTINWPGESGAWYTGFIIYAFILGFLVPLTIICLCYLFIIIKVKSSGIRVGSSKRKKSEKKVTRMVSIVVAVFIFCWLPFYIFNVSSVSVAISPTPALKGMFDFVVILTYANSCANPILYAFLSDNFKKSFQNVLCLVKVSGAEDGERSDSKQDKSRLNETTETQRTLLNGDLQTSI
Protocol: as §1, §2, §3

in vivo = details: BALB/c nude, mouse, in vivo, iv, total radioactivity
Summary of the method: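 Compounds labelled with ^177Lu in 0.5 M NaOAc pH 4.5 at 95° C for 15 min, then used directly or diluted in PBS with 3 mg/mL ascorbate. BALB/c nude mice bore subcutaneous AR42J flank xenografts (0.05-0.50 g). Organs excised at 4, 24 and 72 h post-injection and γ-counted for % ID and % ID/g.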

| Compound | Relative Binding Affinity CCK2R (CCK2R; based on mean IC50, C-2 = 1.00) | Relative Binding Affinity SSTR2 (SSTR2; based on mean IC50, C-1 = 1.00) | tissue to tissue ratio at 24 h (in vivo; T/K Tumor/Kidney ratio) | tissue to tissue ratio at 24 h (in vivo; T/L Tumor/Liver ratio) | tissue to tissue ratio at 24 h (in vivo; T/P Tumor/Pancreas ratio) | tissue to tissue ratio at 24 h (in vivo; T/Sp Tumor/Spleen ratio) | tissue to tissue ratio at 24 h (in vivo; T/St Tumor/Stomach ratio) | tissue uptake at 24 h (in vivo; uptake Kidney) [%ID/g] | tissue uptake at 24 h (in vivo; uptake Liver) [%ID/g] | tissue uptake at 24 h (in vivo; uptake Pancreas) [%ID/g] | tissue uptake at 24 h (in vivo; uptake Spleen) [%ID/g] | tissue uptake at 24 h (in vivo; uptake Stomach) [%ID/g] | tissue uptake at 24 h (in vivo; uptake Tumor) [%ID/g] | further results |
| --- | --- | --- | --- | --- | --- | --- | --- | --- | --- | --- | --- | --- | --- | --- |
| C[C@@H](O)[C@H](NC(=O)[C@@H]1CSSC[C@H](NC(=O)[C@@H](Cc2ccccc2)NC(=O)COCCOCCNC(=O)[C@H](CCCCNC(=O)[C@H](CCC(=O)O)NC(=O)c2cccc(NC(=O)N[C@@H]3CN(C4CCCCC4)c4ccccc4N(CC(=O)C(C)(C)C)C3=O)c2)NC(=O)CN2CCN(CC(=O)O)CCN(CC(=O)O)CCN(CC(=O)O)CC2)C(=O)N[C@@H](Cc2ccc(O)cc2)C(=O)N[C@H](Cc2c[nH]c3ccccc23)C(=O)N[C@@H](CCCCN)C(=O)N[C@@H]([C@@H](C)O)C(=O)N1)C(N)=O [Compound I-3, DOTA-K(-E-Z360)-OEG-f[CYwKTC]T-NH2] | 5.3 | 0.50 | 0.8 | 12 | 13 | 45 | 4.2 | 16.5 | 1.16 | 1.05 | 0.3 | 3.24 | 13.6 |  |
| C[C@@H](O)[C@H](NC(=O)[C@@H]1CSSC[C@H](NC(=O)[C@@H](Cc2ccccc2)NC(=O)[C@H](CCCCNC(=O)CC[C@H](NC(=O)CNC(=O)c2cccc(NC(=O)N[C@@H]3CN(C4CCCCC4)c4ccccc4N(CC(=O)C(C)(C)C)C3=O)c2)C(=O)O)NC(=O)COCCOCCNC(=O)CCC(C(=O)O)N2CCN(CC(=O)O)CCN(CC(=O)O)CCN(CC(=O)O)CC2)C(=O)N[C@@H](Cc2ccc(O)cc2)C(=O)N[C@H](Cc2c[nH]c3ccccc23)C(=O)N[C@@H](CCCCN)C(=O)N[C@@H]([C@@H](C)O)C(=O)N1)C(=O)O (stereo partly shown) [Compound I-19, DOTAGA- OEG- K(-gE- G- Z360)- f[CYwKTC]T- OH] | 270 | 0.46 | 0.6 | 35 | 15 | 46 | 4.3 | 51.6 | 0.96 | 2.07 | 0.68 | 7.24 | 31.3 |  |
| C[C@@H](O)[C@H](NC(=O)[C@@H]1CSSC[C@H](NC(=O)[C@@H](Cc2ccccc2)NC(=O)[C@H](CCCCNC(=O)c2cccc(NC(=O)N[C@@H]3CN(C4CCCCC4)c4ccccc4N(CC(=O)C(C)(C)C)C3=O)c2)NC(=O)CN2CCN(CC(=O)O)CCN(CC(=O)O)CCN(CC(=O)O)CC2)C(=O)N[C@@H](Cc2ccc(O)cc2)C(=O)N[C@H](Cc2c[nH]c3ccccc23)C(=O)N[C@@H](CCCCN)C(=O)N[C@@H]([C@@H](C)O)C(=O)N1)C(=O)O [Compound I-34, DOTA-K(Z360)-f[CYwKTC]T-OH] |  |  |  |  |  |  |  |  |  |  |  |  |  | Relative Binding Affinity CCK2R (CCK2R): 5.9; Relative Binding Affinity SSTR2 (SSTR2): 1.49; tissue to tissue ratio at 24 h (in vivo; T/K Tumor/Kidney ratio, 177Lu-labeled, 24 hours after dosing): 3.7; tissue to tissue ratio at 24 h (in vivo; T/L Tumor/Liver ratio, 177Lu-labeled, 24 hours after dosing): 1.1; tissue to tissue ratio at 24 h (in vivo; T/P Tumor/Pancreas ratio, 177Lu-labeled, 24 hours after dosing): 7; tissue to tissue ratio at 24 h (in vivo; T/Sp Tumor/Spleen ratio, 177Lu-labeled, 24 hours after dosing): 2.4; tissue to tissue ratio at 24 h (in vivo; T/St Tumor/Stomach ratio, 177Lu-labeled, 24 hours after dosing): 4; tissue uptake at 24 h (in vivo; uptake Kidney, 177Lu-labeled, 24 hours after dosing (Table 5)): 6.1 %ID/g; tissue uptake at 24 h (in vivo; uptake Liver, 177Lu-labeled, 24 hours after dosing (Table 5)): 19.8 %ID/g; tissue uptake at 24 h (in vivo; uptake Pancreas, 177Lu-labeled, 24 hours after dosing (Table 5)): 3.2 %ID/g; tissue uptake at 24 h (in vivo; uptake Spleen, 177Lu-labeled, 24 hours after dosing (Table 5)): 9.5 %ID/g; tissue uptake at 24 h (in vivo; uptake Stomach, 177Lu-labeled, 24 hours after dosing (Table 5)): 5.7 %ID/g; tissue uptake at 24 h (in vivo; uptake Tumor, 177Lu-labeled, 24 hours after dosing (Table 5)): 22.7 %ID/g |

Further lines, with some results ahead:

| Relative Binding Affinity CCK2R (CCK2R; based on mean IC50, C-2 = 1.00) | Relative Binding Affinity SSTR2 (SSTR2; based on mean IC50, C-1 = 1.00) | Compound | tissue to tissue ratio at 24 h (in vivo; T/K Tumor/Kidney ratio) | tissue to tissue ratio at 24 h (in vivo; T/L Tumor/Liver ratio) | tissue to tissue ratio at 24 h (in vivo; T/P Tumor/Pancreas ratio) | tissue to tissue ratio at 24 h (in vivo; T/Sp Tumor/Spleen ratio) | tissue to tissue ratio at 24 h (in vivo; T/St Tumor/Stomach ratio) | tissue uptake at 24 h (in vivo; uptake Kidney) [%ID/g] | tissue uptake at 24 h (in vivo; uptake Liver) [%ID/g] | tissue uptake at 24 h (in vivo; uptake Pancreas) [%ID/g] | tissue uptake at 24 h (in vivo; uptake Spleen) [%ID/g] | tissue uptake at 24 h (in vivo; uptake Stomach) [%ID/g] | tissue uptake at 24 h (in vivo; uptake Tumor) [%ID/g] | further results |
| --- | --- | --- | --- | --- | --- | --- | --- | --- | --- | --- | --- | --- | --- | --- |
| 13.5 | 2.85 | C[C@@H](O)[C@H](NC(=O)[C@@H]1CSSC[C@H](NC(=O)[C@@H](Cc2ccccc2)NC(=O)CC[C@H](NC(=O)[C@H](CCCCNC(=O)CC[C@H](NC(=O)CNC(=O)c2cccc(NC(=O)N[C@@H]3CN(C4CCCCC4)c4ccccc4N(CC(=O)C(C)(C)C)C3=O)c2)C(=O)O)NC(=O)CC[C@H](NC(=O)CN2CCN(CC(=O)O)CCN(CC(=O)O)CCN(CC(=O)O)CC2)C(=O)O)C(=O)O)C(=O)N[C@@H](Cc2ccc(O)cc2)C(=O)N[C@H](Cc2c[nH]c3ccccc23)C(=O)N[C@@H](CCCCN)C(=O)N[C@@H]([C@@H](C)O)C(=O)N1)C(=O)O [Compound I-9, DOTA-gE-K(-gE-G-Z360)-gE-f[CYwKTC]T-OH] | 0.3 | 8.3 | 3.8 | 11 | 3.4 | 42.2 | 1.31 | 2.89 | 1.03 | 3.22 | 10.9 |  |
| 10.8 | 0.23 | C[C@@H](O)[C@H](NC(=O)[C@@H]1CSSC[C@H](NC(=O)[C@@H](Cc2ccccc2)NC(=O)COCCOCCNC(=O)[C@H](CCCCNC(=O)CCC(C(=O)O)N2CCN(CC(=O)O)CCN(CC(=O)O)CCN(CC(=O)O)CC2)NC(=O)COCCOCCNC(=O)CC[C@H](NC(=O)CC[C@H](NC(=O)c2cccc(NC(=O)N[C@@H]3CN(C4CCCCC4)c4ccccc4N(CC(=O)C(C)(C)C)C3=O)c2)C(=O)O)C(=O)O)C(=O)N[C@@H](Cc2ccc(O)cc2)C(=O)N[C@H](Cc2c[nH]c3ccccc23)C(=O)N[C@@H](CCCCN)C(=O)N[C@@H]([C@@H](C)O)C(=O)N1)C(=O)O (stereo partly shown) [Compound I-13, (Z360)- gE- gE- OEG- K(DOTAGA)- OEG- f[CYwKTC]T- OH] | 0.3 | 12 | 12 | 32 | 6.8 | 46.7 | 1.21 | 1.21 | 0.47 | 2.19 | 14.8 | IC50 (CCK2R; AR42J cells, 125I-C3 competitive ligand, 37° C. 1 h, read-out: CCK2R/IC50): 1.6 nM; IC50 (SSTR2; AR42J cells, 125I-C1 competitive ligand, 37° C. 1 h, read-out: SSTR2/IC50): 12.3 nM |
